Source: patent US20240317834A1, “COMPOSITIONS AND METHODS FOR NEUROLOGICAL DISEASES” (CODA BIOTHERAPEUTICS, INC., priority 2020, published 2024)

Experiments:
Lenti-X 293T cells = experiment: YFP fluorescence quenching anion reporter plate reader assay of engineered receptors stimulated with acetylcholine or a non-native ligand; type: cell-based
How it was run: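 YFP quench was followed for about 1 min 43 s after ligand delivered in iodide-based ECS, pH 7.2. Values are end-of-read fluorescence (last 10 s) divided by the pre-ligand baseline (15 s). Cells were LX293T, transfected with receptor DNA a day before the assay.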

rat DRG neurons = experiment: Rheobase shift and evoked action potentials in rat DRG neurons (current clamp); type: cell-based
Method: Using whole cell manual patch clamp electrophysiology in HEK293 cells, rat DRG neurons and rat hippocampal neurons, the EC50 of the various engineered receptors disclosed herein to Ach and non-native ligands was measured using the Hill equation with peak current measurements from escalating doses of ligand. The rheobase shift was also measured in rat DRG neurons, which reflects the efficacy of the receptors. To calculate the rheobase, first, the amount of current that can produce an action potential was determined. Then the ligand was added, followed by a step wise increase in the current injected up to 700 pA.
For manual patch clamp experiments, Cells plated on coverslips were visualized at 10× and 40× on an inverted fluorescence microscope (Olympus). Recordings were made with an Axopatch 200B amplifier and Digidata 1550B (Molecular Devices) at RT using 3-6 MOhm glass patch electrodes (Sutter, BF150-86-10). Unless otherwise stated, recordings were made in extracellular solution (ECS) containing: 140 mM sodium chloride, 4 mM potassium chloride, 1 mM magnesium chloride, 2 mM calcium chloride, 10 mM HEPES, and 10 mM D-(+)-glucose (pH=7.3 with sodium hydroxide, osmolarity=305−315 mOsm). An 8-line reservoir (AutoMate Scientific) in combination with an 8-channel zero-dead-volume perfusion pencil (AutoMate Scientific) was used for perfusion. Data was acquired using pClamp software (Molecular Devices). Traces were either analyzed in Clampfit (Molecular Devices) or using custom Python code. Plotting and statistics were performed in GraphPad Prism.
DRG rheobase experiments were performed in current clamp mode using a potassium-based internal solution containing: 100 mM potassium D-gluconate, 28 mM potassium chloride, 1 mM magnesium chloride hexahydrate, 5 mM magnesium ATP, 10 mM HEPES, and 0.5 mM EGTA (pH=7.2 with potassium hydroxide, osmolarity=290-295 mOsm, calculated liquid junction potential=−13.5 mV). To measure DRG input resistance and rheobase, 500 ms current steps (−200 pA to 700 pA) were applied the membrane in the presence and absence of a compound. No holding current was applied to the membrane for cells included in the final datasets. Data were acquired at 10 kHz, with Bessel filter at 2 kHz and series resistance compensation at 100%. Rheobase was defined as the smallest depolarizing current injection required to cause an action potential to fire in the cell. In a subset of cells, the rheobase was ambiguous, since the action potential appeared to be graded in amplitude. In these cases, a […] of the trace clarified the rheobase. Input resistance was measured from the negative current injections, calculated as the difference in membrane potential at steady state divided by the current injection amplitude and then averaged across the four negative current steps for each recording. Resting membrane potential was measured from the first 100 ms of each sweep, averaged for each recording, and corrected for liquid junction potential. One-way ANOVA with multiple comparisons was used to test for significance of difference in rheobase and input resistance between baseline, drug, and wash conditions.

B1: CODA1025: engineered chimeric LGIC receptor, R101F, L131G in SEQ ID NO: 33 (protein)
chain: MRCSPGGVWLALAASLLHVSLQGEFQRKLYKELVKNYNPLERPVANDSQPLTVYFSLSLLQIMDVDEKNQVLTTNIWLQMSWTDHYLQWNVSEYPGVKTVFFPDGQIWKPDILLYNSADERFDATFHTNVGVNSSGHCQYLPPGIFKSSCPMDLKNFPMDVQTCKLKFGSWSYGGWSLDLQMQEADISGYIPNGEWDLVGIPGKRSERFYECCKEPYPDVTFTVTMRRRMGYYLIQMYIPSLLIVILSWISFWINMDAAPARVGLGITTVLTMTTQSSGSRASLPKVSYVKAIDIWMAVCLLFVFSALLEYAAVNFVSRQHKELLRFRRKRRHHKSPMLNLFQEDEAGEGRFNFSAYGMGPACLQAKDGISVKGANNSNTTNPPPAPSKSPEEMRKLFIQRAKKIDKISRIGFPMAFLIFNMFYWIIYKIVRREDVHNQ
modifications: synthetic sequence of chimeric LGIC
- YFP fluorescence quenching using CNL001 (Lenti-X 293T cells; 1 nM CNL001, first column): −18.527%
- YFP fluorescence quenching using CNL001 (Lenti-X 293T cells; 1 nM CNL001, second column): −21.577%
- YFP fluorescence quenching using TC-5619/Bradanicline (Lenti-X 293T cells; 1 nM brd): −10.61%
- YFP fluorescence quenching using TC-5619/Bradanicline (Lenti-X 293T cells; 3 nM brd): 2.63%
- YFP fluorescence quenching using Varenicline (Lenti-X 293T cells; 3 nM var, first column): 48.074
- YFP fluorescence quenching using Varenicline (Lenti-X 293T cells; 3 nM var, second column): 60.978
- YFP fluorescence quenching using CNL001 (Lenti-X 293T cells; 10 nM CNL001, first column): 14.063%
- YFP fluorescence quenching using CNL001 (Lenti-X 293T cells; 10 nM CNL001, second column): 49.818%
- YFP fluorescence quenching using TC-5619/Bradanicline (Lenti-X 293T cells; 10 nM brd): 17.71%
- YFP fluorescence quenching using TC-5619/Bradanicline (Lenti-X 293T cells; 30 nM brd): 68.48%
- YFP fluorescence quenching using Facinicline (Lenti-X 293T cells; 30 nM fac): −8.99
- YFP fluorescence quenching using Varenicline (Lenti-X 293T cells; 30 nM var, first column): 70.023
- YFP fluorescence quenching using Varenicline (Lenti-X 293T cells; 30 nM var, second column): 69.433
- YFP fluorescence quenching using CNL001 (Lenti-X 293T cells; 50 nM CNL001, first column): 77.765%
- YFP fluorescence quenching using CNL001 (Lenti-X 293T cells; 50 nM CNL001, second column): 79.23%
- YFP fluorescence quenching using ABT-126 (Lenti-X 293T cells; 50 nM abt): −11.53%
- YFP fluorescence quenching using CNL001 (Lenti-X 293T cells; 100 nM CNL001, first column): 80.544%
- YFP fluorescence quenching using CNL001 (Lenti-X 293T cells; 100 nM CNL001, second column): 80.695%
- YFP fluorescence quenching using CNL002 (Lenti-X 293T cells; 100 nM CNL002): 12.48%
- YFP fluorescence quenching using ABT-126 (Lenti-X 293T cells; 100 nM abt): −7.61%
- YFP fluorescence quenching using AZD-0328 (Lenti-X 293T cells; 100 nM azd0328): 6.26%
- YFP fluorescence quenching using ABT-126 (Lenti-X 293T cells; 300 nM abt): 6.55%
- YFP fluorescence quenching using AZD-0328 (Lenti-X 293T cells; 300 nM azd0328): 37.98%
- YFP fluorescence quenching using TC-5619/Bradanicline (Lenti-X 293T cells; 300 nM brd): 75.12%
- YFP fluorescence quenching using Facinicline (Lenti-X 293T cells; 300 nM fac): 10.21
- YFP fluorescence quenching using Varenicline (Lenti-X 293T cells; 300 nM var, first column): 78.989
- YFP fluorescence quenching using Varenicline (Lenti-X 293T cells; 300 nM var, second column): 79.21
- YFP fluorescence quenching using Varenicline (Lenti-X 293T cells; 500 nM var, first column): 79.212
- YFP fluorescence quenching using Varenicline (Lenti-X 293T cells; 500 nM var, second column): 79.771
- YFP fluorescence quenching using CNL001 (Lenti-X 293T cells; 1 uM CNL001, first column): 81.191%
- YFP fluorescence quenching using CNL001 (Lenti-X 293T cells; 1 uM CNL001, second column): 82.385%
- YFP fluorescence quenching using CNL002 (Lenti-X 293T cells; 1 uM CNL002): 46.04%
- YFP fluorescence quenching using ABT-126 (Lenti-X 293T cells; 1 uM abt): 25.08%
- YFP fluorescence quenching using TC-6987 (Lenti-X 293T cells; 1 uM tc6987): −13.32
- YFP fluorescence quenching using Varenicline (Lenti-X 293T cells; 1 uM var, first column): 79.538
- YFP fluorescence quenching using Varenicline (Lenti-X 293T cells; 1 uM var, second column): 80.577
- YFP fluorescence quenching using TC-6987 (Lenti-X 293T cells; 10 uM tc6987): 43.71
- YFP fluorescence quenching using CNL002 (Lenti-X 293T cells; 30 uM CNL002): 39.82%
- YFP fluorescence quenching using AZD-0328 (Lenti-X 293T cells; 30 uM azd0328): 79.31%
- YFP fluorescence quenching using Facinicline (Lenti-X 293T cells; 30 uM fac): 78.24
- YFP fluorescence quenching using TC-6987 (Lenti-X 293T cells; 500 uM tc6987): 53.98
- percent quench of YFP fluorescence, 30 nM TC-6683 (Lenti-X 293T cells; TC-6683 30 nM): −1.645%
- percent quench of YFP fluorescence, 300 nM TC-6683 (Lenti-X 293T cells; TC-6683 300 nM): 3.043%
- percent quench of YFP fluorescence, 3 uM TC-6683 (Lenti-X 293T cells; TC-6683 3 uM): 0.082%
- percent quench of YFP fluorescence, 30 uM TC-6683 (Lenti-X 293T cells; TC-6683 30 uM): 2.449%
- percent quench of YFP fluorescence, 100 uM TC-6683 (Lenti-X 293T cells; TC-6683 100 uM): 10.437%
- percent quench of YFP fluorescence, 10 uM ach (Lenti-X 293T cells; acetylcholine 10 uM): 12.57%
- percent quench of YFP fluorescence, 50 uM ach (Lenti-X 293T cells; acetylcholine 50 uM): −3.46%
- percent quench of YFP fluorescence, 100 uM ach (Lenti-X 293T cells; acetylcholine 100 uM): 12.65%
- percent quench of YFP fluorescence, 300 uM ach (Lenti-X 293T cells; acetylcholine 300 uM): −6.96%
- percent quench of YFP fluorescence, 500 uM ach (Lenti-X 293T cells; acetylcholine 500 uM): −6.77%
- percent quench of YFP fluorescence, 1 mM ach (Lenti-X 293T cells; acetylcholine 1 mM): 19.42%
- percent quench of YFP fluorescence, 3 mM ach (Lenti-X 293T cells; acetylcholine 3 mM): 65.06%
- Rheobase Shift; Rat DRG Neurons, +TC-5619 @ EC90 (rat DRG neurons; +TC-5619 @ EC90): 560 ± 72 pA
- Rheobase Shift; Rat DRG Neurons, Baseline (rat DRG neurons; Baseline, no ligand): 140 ± 19 pA
